Experimental findings from patent US20120276098A1, “DRUG FUSIONS AND CONJUGATES WITH EXTENDED HALF LIFE” (priority 2009, published 2012) are described below.

Read-outs that look alike come from different tables or passages of the source.

In one data set the target is GLP1R (Homo sapiens, UniProt P43220). As to the kind of experiment: GLP-1 receptor binding assay (GLP-1R BA), CHO 6CRE GLP1R luciferase reporter cells. It counts as cell-based. Also on record: expressed in transfected cells; host or cells: CHO K1 (CHO 6CRE GLP1R cells). The protocol:
Fusions were buffer exchanged into 100 mM […], 20 mM citrate pH 6.2. Meanwhile,CHO 6CRE GLP1R cells (CHO K1 cells (obtainable from the American Type Tissue Collection, ATCC) stably transfected with 6 cAMP response element driving a luciferase reporter gene and also with the human GLP-1 receptor) were seeded at 2×10^5cells/mL in suspension media. Suspension culture was maintained for 24 hours. Cells were then diluted into 15 mM HEPES buffer (obtainable from Sigma), containing 2 mM L glutamine (2.5×10^5 cells/ml) and dispensed into 384-well plates containing 10 ul/well of the compound to be assayed. After the addition of assay control, plates were returned to the incubator for 3 h at 37° C. and 5% CO2. […] Plates were placed in the reader (Viewlux, Perkin Elmer) and pre-incubated for 5 minutes prior to reading the […] and plotting of results. Compound was assayed at a range of concentrations in the presence and absence of 10 uM albumin, allowing a dose response curve to be fitted with and without the albumin.
(In general: In a reporter assay the amount or activity of a reporter protein is the signal.)

In data set [1] the target is Human serum albumin (HSA) (Homo sapiens, UniProt P02768). It counts as binding. The protocol: (§1) The analysis was performed using a CM5 Biacore chip (carboxymethylated dextran matrix) that was coated with serum albumin. About 1000 resonance units (RUs) of each serum albumin to be tested (human, rat and mouse serum albumin) was immobilised in acetate buffer pH 5.5. Flow cell 1 of the Biocore AB was an uncoated, blocked negative control, flow cell 2 was coated with Human serum albumin (HSA) (815 RUs) flow cell 3 was coated with Rat serum albumin (RSA)(826RUs) and flow cell 4 was coated with Mouse serum albumin (MSA) (938 RUs). Each fusion molecule tested was expressed in mammalian tissue culture as described in the example above.
(§2) A range of concentrations of the fusion molecule were prepared (in the range 16 nM to 2 μM) by dilution into BIACORE HBS-EP buffer (0.01 M HEPES, pH7.4, 0.15 M NaCl, 3 mM EDTA, 0.005% surfactant P20) and flowed across the BIACORE chip.
(§3) Affinity (KD) was calculated from the BIACORE traces by fitting on-rate and off-rate curves to traces generated by concentrations of dAb in the region of the KD.

Data set [2] concerns the target Mouse serum albumin (MSA) (Mus musculus, UniProt P07724). The class given is binding. The procedure: as §1, §2, §3
Another data set concerns the target Rat serum albumin (RSA) (Rattus norvegicus, UniProt P02770). The class given is binding. The procedure:
as §1, §2, §3

Where [3] appears, read: read-out: GLP-1R BA (10 uM albumin) EC50 (pM) n = 2, presence of 10 uM albumin.
Where [4] appears, read: read-out: GLP-1R BA EC50 (pM) n = 3, absence of albumin.

Sequence of GLP1R (P43220 24-463): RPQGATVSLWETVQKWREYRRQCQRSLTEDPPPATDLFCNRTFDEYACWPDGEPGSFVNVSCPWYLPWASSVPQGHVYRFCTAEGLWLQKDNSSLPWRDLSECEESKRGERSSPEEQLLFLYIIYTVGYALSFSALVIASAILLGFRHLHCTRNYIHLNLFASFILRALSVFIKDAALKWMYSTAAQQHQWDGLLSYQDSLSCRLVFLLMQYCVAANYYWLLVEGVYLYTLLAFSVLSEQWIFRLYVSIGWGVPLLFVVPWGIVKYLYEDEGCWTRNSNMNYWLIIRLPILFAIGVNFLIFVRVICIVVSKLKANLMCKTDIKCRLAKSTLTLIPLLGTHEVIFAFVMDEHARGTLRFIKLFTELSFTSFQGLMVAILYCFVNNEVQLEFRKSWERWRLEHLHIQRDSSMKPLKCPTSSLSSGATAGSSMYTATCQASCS
Sequence of Mouse serum albumin (MSA) (P07724 25-608): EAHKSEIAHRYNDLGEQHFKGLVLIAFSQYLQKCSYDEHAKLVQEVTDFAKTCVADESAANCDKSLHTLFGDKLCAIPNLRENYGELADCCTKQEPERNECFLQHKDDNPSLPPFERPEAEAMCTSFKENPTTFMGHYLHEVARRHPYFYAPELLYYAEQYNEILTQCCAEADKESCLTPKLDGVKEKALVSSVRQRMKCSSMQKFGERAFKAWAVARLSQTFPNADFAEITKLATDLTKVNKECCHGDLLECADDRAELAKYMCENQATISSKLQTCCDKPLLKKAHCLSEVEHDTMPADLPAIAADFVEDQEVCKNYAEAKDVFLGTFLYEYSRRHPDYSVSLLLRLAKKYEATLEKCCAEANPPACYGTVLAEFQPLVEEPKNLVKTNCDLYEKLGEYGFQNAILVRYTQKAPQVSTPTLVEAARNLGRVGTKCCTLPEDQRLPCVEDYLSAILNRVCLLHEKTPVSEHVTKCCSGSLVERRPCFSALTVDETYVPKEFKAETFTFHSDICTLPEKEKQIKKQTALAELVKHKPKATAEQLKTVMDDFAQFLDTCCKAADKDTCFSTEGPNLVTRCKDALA
Sequence of Rat serum albumin (RSA) (P02770 25-608): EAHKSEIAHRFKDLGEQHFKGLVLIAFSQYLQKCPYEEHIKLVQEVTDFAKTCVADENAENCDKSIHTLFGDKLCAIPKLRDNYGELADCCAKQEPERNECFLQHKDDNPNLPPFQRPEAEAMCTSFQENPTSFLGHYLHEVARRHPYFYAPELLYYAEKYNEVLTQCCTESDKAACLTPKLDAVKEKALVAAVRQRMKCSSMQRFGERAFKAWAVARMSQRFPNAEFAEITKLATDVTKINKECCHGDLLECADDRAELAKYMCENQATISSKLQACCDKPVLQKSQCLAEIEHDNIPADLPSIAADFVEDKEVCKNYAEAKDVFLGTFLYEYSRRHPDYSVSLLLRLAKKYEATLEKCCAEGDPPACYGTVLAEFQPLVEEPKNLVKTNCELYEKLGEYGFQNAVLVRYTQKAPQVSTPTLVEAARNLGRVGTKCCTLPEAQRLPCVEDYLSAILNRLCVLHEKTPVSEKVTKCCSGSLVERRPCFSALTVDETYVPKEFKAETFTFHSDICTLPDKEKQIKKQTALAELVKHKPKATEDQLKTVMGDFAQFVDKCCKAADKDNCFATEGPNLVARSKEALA

For “DAT 0116: Exendin 4 DOM7h-14 fusion, SEQ ID NO 3”, the values for the EC50 with GLP1R (setting [3]) and with GLP1R (setting [4]) were 72 pM and 12 pM, respectively.
“DAT 0117: Exendin 4, helical linker, DOM7h-14 fusion (Table 3), SEQ ID NO 4; Table 2 calls it 2xGLP-1 (7-37) A8G DOM7h-14 fusion”: the Kd in data set [1] is 150 nM; in data set [2], 130 nM; with Rat serum albumin (RSA), 700 nM. In addition, the EC50 was 15 pM in the data set with GLP1R (setting [3]) and 4 pM in the data set with GLP1R (setting [4]).

In general, EC50 refers to the concentration needed to bring the measured effect to its halfway point. What is called Kd is the concentration at which binding is half-saturated. Lower therefore signals higher affinity.
